Assay results from US20250009780A1, “AGENTS ENCODING CLDN6 AND CD3 BINDING ELEMENTS FOR TREATING CLDN6-POSITIVE CANCERS” (BIONTECH SE, priority 2021, published 2025).
“And” between values parts separate entries of the source, which are not always exact repeats. Equal entries are not always repeated.

Legend:
human PBMCs (T cells) = assay: T-cell proliferation assay (CFSE-labeled PBMCs, flow cytometry); format: cell-based
From the text: CFSE-labeled human PBMCs from three healthy donors were co-cultured with CLDN6-positive PA-1 and OV-90 target cells or with CLDN6-negative but control TAA-positive NUGC-4 as well as target-negative MDA-MB-231 control cells in a 12-well culture plate format. An effector-to-target-cell ratio of 10:1 was applied. In addition, PBMCs without (−) target cells were included separately. […] OKT3 antibody (anti-human CD3; black bars) served as positive control for target-independent CD3-driven T-cell proliferation. After 72 h of incubation, the percentages of proliferating T cells were analyzed by flow cytometry.
HEK-293T-17 producer cells were transfected with BNT142 or a control RiboMab-encoding RNA. Supernatants containing RiboMab02.1 or the control RiboMab (specific for an irrelevant TAA) were used as test items. Two concentrations (100 or 1 ng/mL) of RiboMab-containing supernatant were added to co-cultures of carboxyfluorescein succinimidyl ester (CFSE)-labeled human PBMCs and target-positive or -negative cells. PA-1 or OV-90 served as CLDN6-positive and MDA-MB-231 as target-negative cells. CLDN6-negative NUGC-4 cells (expressing the irrelevant TAA) as well as PBMCs in the absence of any target cells were included as further specificity controls. PBMCs from three healthy donors were compared in this assay. After 72 h of incubation, T cells were analyzed by flow cytometry to determine target-dependent proliferation.

human CD3 = molecular target: T1, human CD3 (Homo sapiens, UniProt P07766); assay: Flow cytometric binding assay, human PBMCs; details: 10 μg/mL
T1 construct: endogenous in cells; host or cells: human PBMCs (T cells)
T1 sequence (P07766 23-207): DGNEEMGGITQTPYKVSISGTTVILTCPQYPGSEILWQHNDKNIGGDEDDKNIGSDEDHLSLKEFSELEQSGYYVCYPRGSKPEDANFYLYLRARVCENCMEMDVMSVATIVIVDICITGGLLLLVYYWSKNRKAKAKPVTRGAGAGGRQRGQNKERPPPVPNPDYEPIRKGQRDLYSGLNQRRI
T1 sequence (P04234 22-171 partner): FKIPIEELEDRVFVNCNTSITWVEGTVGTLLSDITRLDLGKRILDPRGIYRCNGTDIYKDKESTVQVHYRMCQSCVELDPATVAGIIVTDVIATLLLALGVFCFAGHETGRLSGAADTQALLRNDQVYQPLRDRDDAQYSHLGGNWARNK
T1 sequence (P09693 23-182 partner): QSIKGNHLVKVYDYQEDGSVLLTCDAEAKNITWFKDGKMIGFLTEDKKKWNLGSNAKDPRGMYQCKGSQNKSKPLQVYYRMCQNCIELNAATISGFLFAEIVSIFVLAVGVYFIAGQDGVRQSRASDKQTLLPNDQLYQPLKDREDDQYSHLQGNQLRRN
T1 sequence (P20963 22-164 partner): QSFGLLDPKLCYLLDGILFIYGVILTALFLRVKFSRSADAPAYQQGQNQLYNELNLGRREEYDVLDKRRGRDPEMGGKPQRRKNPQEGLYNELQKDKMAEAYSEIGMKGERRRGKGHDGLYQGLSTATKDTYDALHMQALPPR
From the text: (§1) Cells were first gated for singlets followed by gating for viable lymphocytes (PBMCs) or viable HEK-293T-17 cells. […] Cynomolgus monkey or human PBMCs and HEK-293T-17 transductants stably expressing luciferase (HEK-293T-17_mock), CLDN3, 4, 6 or 9 served as target cells as indicated. The dotted vertical line marks the peak position of unstained populations.

CLDN6 = molecular target: T2, CLDN6 (Homo sapiens, UniProt P56747); assay: Flow cytometric binding assay, HEK-293T-17 CLDN6 transductants; details: 10 μg/mL RiboMab02.1 in HEK-293T-17 supernatant
T2 construct: expressed in transfected cells
T2 sequence (P56747 1-220): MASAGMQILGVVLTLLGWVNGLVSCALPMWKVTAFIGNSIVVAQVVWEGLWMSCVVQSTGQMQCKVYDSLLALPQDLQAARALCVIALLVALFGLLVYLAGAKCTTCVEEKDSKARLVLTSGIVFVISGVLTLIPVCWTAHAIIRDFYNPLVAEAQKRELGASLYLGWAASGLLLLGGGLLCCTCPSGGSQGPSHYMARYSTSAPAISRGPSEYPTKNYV
From the text: as §1

simian CD3 = molecular target: T3, simian CD3 (Macaca fascicularis, UniProt Q95LI5); assay: Flow cytometric binding assay, cynomolgus monkey PBMCs; details: 10 μg/mL
T3 construct: endogenous in cells; host or cells: cynomolgus monkey PBMCs (T cells)
T3 sequence (Q95LI5 22-198): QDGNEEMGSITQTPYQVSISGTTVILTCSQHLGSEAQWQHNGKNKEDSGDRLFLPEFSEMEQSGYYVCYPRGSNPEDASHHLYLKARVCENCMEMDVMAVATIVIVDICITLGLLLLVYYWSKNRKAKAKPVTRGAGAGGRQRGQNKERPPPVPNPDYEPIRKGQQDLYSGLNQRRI
T3 sequence (Q95LI8 22-171 partner): as the sequence (P04234 22-171 partner) above, with I5V, N15K, I20V, S32T, D33N, I34N, T64A, S74N, V83L, H141R counted along it
T3 sequence (Q95LI7 23-181 partner): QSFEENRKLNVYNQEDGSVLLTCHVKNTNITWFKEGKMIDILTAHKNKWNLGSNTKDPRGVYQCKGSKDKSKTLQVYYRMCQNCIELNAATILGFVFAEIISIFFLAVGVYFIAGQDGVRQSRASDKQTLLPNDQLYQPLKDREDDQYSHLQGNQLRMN
From the text: as §1

CLDN3 = molecular target: T4, CLDN3 (Homo sapiens, UniProt O15551); assay: Flow cytometric binding assay, HEK-293T-17 CLDN3 transductants; details: 10 μg/mL RiboMab02.1 in HEK-293T-17 supernatant
T4 construct: expressed in transfected cells
T4 sequence (O15551 1-220): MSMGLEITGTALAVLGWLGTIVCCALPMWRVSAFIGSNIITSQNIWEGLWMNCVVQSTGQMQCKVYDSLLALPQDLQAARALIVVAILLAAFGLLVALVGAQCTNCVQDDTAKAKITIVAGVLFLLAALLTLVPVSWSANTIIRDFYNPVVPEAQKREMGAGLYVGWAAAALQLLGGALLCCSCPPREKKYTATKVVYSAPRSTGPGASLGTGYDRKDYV
From the text: as §1

[1] = Single-dose PK study of BNT142 in cynomolgus monkeys
CLDN9 = molecular target: T5, CLDN9 (Homo sapiens, UniProt O95484); assay: Flow cytometric binding assay, HEK-293T-17 CLDN9 transductants; design: expressed in transfected cells; details: 10 μg/mL RiboMab02.1 in HEK-293T-17 supernatant
T5 sequence (O95484 1-217): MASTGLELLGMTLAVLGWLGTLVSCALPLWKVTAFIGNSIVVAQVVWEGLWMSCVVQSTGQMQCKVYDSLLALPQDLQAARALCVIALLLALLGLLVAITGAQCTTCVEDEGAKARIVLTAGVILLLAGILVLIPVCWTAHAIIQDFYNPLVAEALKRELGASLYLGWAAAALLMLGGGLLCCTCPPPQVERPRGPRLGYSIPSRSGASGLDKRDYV
From the text: as §1

[2] = Anti-drug antibody (ADA) sandwich immunoassay in mouse serum; format: in vivo, Balb/cJRj mice; details: 30 μg RNA-LNP IV single dose; compared to RiboMab_712/711
Experimental: Four female Balb/cJRj mice received an IV single dose of 30 μg RNA-LNP per mouse (˜1.4 mg/kg). Serum was sampled pre- and 6, 24, 48, 96, 168, 216, 265 and 528 hours (0.25 to 22 days) post-administration.
Anti-RiboMab02.1 and anti-RiboMab_712/711 drug antibodies (ADAs) in mouse sera were determined using a Gyros xPand™ XPA1025 ELISA device from Gyros Protein Technologies AB. Sandwich immunoassay was processed on a Gyrolab Bioaffy 200 CD.
Anti-RiboMab ADAs were captured using 100 μg/mL biotinylated drug antibody. Serum ADA levels were detected with 25 nM Alexa Fluor 647-conjugated AffiniPure goat anti-mouse IgG, Fc fragment specific antibody. Data were generated using the 200-3W-002-A method and the results were analyzed using Gyrolab Evaluator software.
The positive ADA response was determined according to the floating cut-point. Therefore, the cut-point was calculated using the response of the negative sera (pre-bleeds) and the formula, normalization factor (NF)+mean negative controls (NC).
NF=X*SD of the negative samples; X=1.645; SD=standard deviation of the negative sera (pre-bleeds); NC=3 negative controls (pooled negative sera).

[3] = 0.050 mg/kg, individual animals

Substance: RiboMab02.1: Fab-(scFv)2-based bispecific antibody (tribody) against CLDN6 and CD3 encoded by BNT142; SEQ ID NOs: 4 and 6; C53S
- T-cell proliferation (human PBMCs (T cells); PBMCs co-cultured with CLDN6-negative NUGC-4 cells): no RiboMab02.1-driven T-cell proliferation
- T-cell proliferation (human PBMCs (T cells); PBMCs co-cultured with MDA-MB-231 cells): no RiboMab02.1-driven T-cell proliferation
- T-cell proliferation (human PBMCs (T cells); absence of any target cells): no RiboMab02.1-driven T-cell proliferation
- T-cell proliferation (human PBMCs (T cells); with OV-90 cells, 1 ng/mL, 72 h): 2±3%
- T-cell proliferation (human PBMCs (T cells); with OV-90 cells, 100 ng/mL, 72 h): 24±3%
- T-cell proliferation (human PBMCs (T cells); with PA-1 cells, 1 ng/mL, 72 h): ~44±7%
- T-cell proliferation (human PBMCs (T cells); with PA-1 cells, 100 ng/mL, 72 h, E:T 10:1, three donors): approximately 58±2%
- binding to human CD3 (human CD3): recognized
- binding to CLDN6 (CLDN6): bound specifically
- binding to simian CD3 (simian CD3): not simian CD3 was recognized
- binding to CLDN3 (CLDN3): not to CLDN3, CLDN4 or CLDN9
- Effective t1/2 (mean) ([1]; 0.050 mg/kg, group, n=2): 28.1 h
- Cmax (mean) ([1]; 0.050 mg/kg, group, n=3): 27.5 ng/mL
- Ctrough (mean) ([1]; 0.050 mg/kg, group, n=3): 3.6 ng/mL
- tlast (median) ([1]; 0.050 mg/kg, group, n=3): 72 h
- Cmax [1, 3]: 32.8 ng/mL and 19.1 ng/mL and 30.7 ng/mL
- Ctrough [1, 3]: 0.6 ng/mL and 5.6 ng/mL
- tlast [1, 3]: 168 h and 72 h (2×)
- Effective t1/2 ([1]; 0.050 mg/kg, individual animals, from MRT0-inf): 28.1 h
- Effective t1/2 (mean) ([1]; […], group, n=1): 26.5 h
- Effective t1/2 (mean) ([1]; […], group, n=3): 36.6 h
- Effective t1/2 ([1]; […], individual animals, calculated from MRT0-inf): 26.5 h
- inter-individual difference in concentration at Cmax ([1]; highest dose group): 2 fold
- binding to CLDN9 (CLDN9): not to CLDN3, CLDN4 or CLDN9
- immunogenic potential (ADA response) [2]: lower immunogenic potential
